B1: recombinant human PCPE-2 (procollagen C-proteinase enhancer 2) fused to a 6 Histidine-tag at the N-terminus (other)
chain: HHHHHHQSPERPVFTCGGILTGESGFIGSEGFPGVYPPNSKCTWKITVPEGKVVVLNFRFIDLESDNLCRYDFVDVYNGHANGQRIGRFCGTFRPGALVSSGNKMMVQMISDANTAGNGFMAMFSAAEPNERGDQYCGGLLDRPSGSFKTPNWPDRDYPAGVTCVWHIVAPKNQLIELKFEKFDVERDNYCRYDYVAVFNGGEVNDARRIGKYCGDSPPAPIVSERNELLIQFLSDLSLTADGFIGHYIFRPKKLPTTTEQPVTTTFPVTTGLKPTVALCQQKCRRTGTLEGNYCSSDFVLAGTVITTITRDGSLHATVSIINIYKEGNLAIQQAGKNMSARLTVVCKQCPLLRRGLNYIIMGQVGEDGRGKIMPNSFIMMFKTKNQKLLDALKNKQC
notes: Produced in HEK 293-T cells from pHLsec; Used as analyte and as immobilized ligand in SPR and in the activity assays; also called full-length PCPE-2
B2: CUB1CUB2* domains of PCPE-2 (other)
chain: GPASQSPERPVFTCGGILTGESGFIGSEGFPGVYPPNSKCTWKITVPEGKVVVLNFRFIDLESDNLCRYDFVDVYNGHANGQRIGRFCGTFRPGALVSSGNKMMVQMISDANTAGNGFMAMFSAAEPNERGDQYCGGLLDRPSGSFKTPNWPDRDYPAGVTCVWHIVAPKNQLIELKFEKFDVERDNYCRYDYVAVFNGGEVNDARRIGKYCGDSPPAPIVSERNELLIQFLSDLSLTADGFIGHYIFRPKLEVLFQ
notes: Two O-glycosylated forms are seen on the gel; also called C1-C2*; the CUB domains of PCPE-2
B3: C2NTR (CUB2 and NTR domains of PCPE-2) (other)
chain: ETGHHHHHHCGGLLDRPSGSFKTPNWPDRDYPAGVTCVWHIVAPKNQLIELKFEKFDVERDNYCRYDYVAVFNGGEVNDARRIGKYCGDSPPAPIVSERNELLIQFLSDLSLTADGFIGHYIFRPKKLPTTTEQPVTTTFPVTTGLKPTVALCQQKCRRTGTLEGNYCSSDFVLAGTVITTITRDGSLHATVSIINIYKEGNLAIQQAGKNMSARLTVVCKQCPLLRRGLNYIIMGQVGEDGRGKIMPNSFIMMFKTKNQKLLDALKNKQC
notes: also called CUB2NTR
B4: C1(R44A,F78A,R79D)-C2(L101A) (other)
chain: GPASQSPERPVFTCGGILTGESGFIGSEGFPGVYPPNSKCTWKITVPEGKVVVLNFAFIDLESDNLCRYDFVDVYNGHANGQRIGRFCGTADPGALVSSGNKMMVQMISDANTAGNGFMAMFSAAEPNERGDQYCGGLLDRPSGSFKTPNWPDRDYPAGVTCVWHIVAPKNQLIELKFEKFDVERDNYCRYDYVAVFNGGEVNDARRIGKYCGDSPPAPIVSERNELLIQFLSDASLTADGFIGHYIFRPKKLEHHHHHH
notes: also called C1-C2 with the combination of the 4 mutations
B5: C-propeptide III (C-propeptide of procollagen III) (other, UniProt P02461 1222-1466, looked up)
chain: DEPMDFKINTDEIMTSLKSVNGQIESLISPDGSRKNPARNCRDLKFCHPELKSGEYWVDPNQGCKLDAIKVFCNMETGETCISANPLNVPRKHWWTDSSAEKKHVWFGESMDGGFQFSYGNPELPEDVLDVHLAFLRLLSSRASQNITYHCKNSIAYMDQASGNVKKALKLMGSNEGEFKAEGNSKFTYTVLEDGCTKHTGEWSKTVFEYRTRKAVRLPIVDIAPYDIGGPDQEFGVDVGPVCFL
notes: domain: C-propeptide; Described as an uncleavable substrate mimic; Immobilized in SPR (351 RU); also called C-propeptide of collagen III
B6: NTR domain of PCPE-2 (other, human, UniProt Q9UKZ9 297-415, looked up)
chain: CQQKCRRTGTLEGNYCSSDFVLAGTVITTITRDGSLHATVSIINIYKEGNLAIQQAGKNMSARLTVVCKQCPLLRRGLNYIIMGQVGEDGRGKIMPNSFIMMFKTKNQKLLDALKNKQC
notes: domain: NTR
B7: catalytic domain of BMP-1 (enzyme, UniProt P13497 121-320, looked up)
chain: AATSRPERVWPDGVIPFVIGGNFTGSQRAVFRQAMRHWEKHTCVTFLERTDEDSYIVFTYRPCGCCSYVGRRGGGPQAISIGKNCDKFGIVVHELGHVVGFWHEHTRPDRDRHVSIVRENIQPGQEYNFLKMEPQEVESLGETYDFDSIMHYARNTFSRGIFLDTIVPKYEVNGVKPPIGQRTRLSKGDIAQARKLYKCP
notes: domain: catalytic domain; also called BMP-1cat

Legend:
[1] = molecular target: T1, human BMP-1 (bone morphogenetic protein-1) fused to a C-terminal Flag tag (human, UniProt P13497-2 121-730, limits assumed); test: inhibition of BMP-1 (7 nM) cleavage of the fluorogenic peptide Mca-YVADAPK(Dnp)-OH, Morrison equation (apparent Ki)
T1 construct: Produced in HEK 293-EBNA cells; also called full-length BMP-1; not shown: C-terminal Flag tag
T1 sequence (looked up): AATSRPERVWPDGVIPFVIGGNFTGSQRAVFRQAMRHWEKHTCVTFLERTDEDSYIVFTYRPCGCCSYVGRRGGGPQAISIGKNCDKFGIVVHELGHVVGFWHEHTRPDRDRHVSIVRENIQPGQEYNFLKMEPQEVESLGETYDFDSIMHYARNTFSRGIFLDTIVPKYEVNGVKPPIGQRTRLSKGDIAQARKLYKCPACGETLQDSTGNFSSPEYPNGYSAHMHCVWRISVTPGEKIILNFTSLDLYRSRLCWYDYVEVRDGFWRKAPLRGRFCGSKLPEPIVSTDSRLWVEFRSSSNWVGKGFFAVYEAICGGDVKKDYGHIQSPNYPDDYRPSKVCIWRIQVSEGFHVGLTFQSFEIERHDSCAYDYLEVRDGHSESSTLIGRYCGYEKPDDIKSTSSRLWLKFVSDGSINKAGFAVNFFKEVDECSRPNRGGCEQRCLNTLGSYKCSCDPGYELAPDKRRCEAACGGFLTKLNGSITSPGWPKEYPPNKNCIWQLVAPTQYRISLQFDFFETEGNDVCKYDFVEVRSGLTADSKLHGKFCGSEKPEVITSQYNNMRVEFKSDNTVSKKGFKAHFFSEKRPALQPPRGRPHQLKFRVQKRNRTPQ

[2] = molecular target: T1, human BMP-1 (bone morphogenetic …); test: SPR, PCPE-2 1.56-100 nM over immobilized BMP-1 (974 RU), steady-state fit
[3] = molecular target: CPIII-Long (model substrate derived from procollagen III); test: cell-based or functional assay
[4] = molecular target: T1, human BMP-1 (bone morphogenetic …); test: SPR, C1-C2* 1.56-100 nM over immobilized BMP-1 (974 RU), steady-state fit
[5] = molecular target: T2, mini-procollagen III (fused to a N-terminal c-myc tag) (UniProt P02461 1098-1466); test: SPR, CUB1CUB2* 0.78-50 nM over immobilized mini-procollagen III (435 RU)
T2 construct: also called Mini-III; not shown: N-terminal c-myc tag

[6] = molecular target: T1, human BMP-1 (bone morphogenetic …); test: SPR over immobilized BMP-1
[7] = molecular target: T1, human BMP-1 (bone morphogenetic …); test: SPR (Figure 65)
[8] = molecular target: T2, mini-procollagen III (fused to a …); test: SPR, analyte over immobilized mini-procollagen III (437 RU)
[9] = molecular target: B1; test: SPR, PCPE-2 over immobilized C-propeptide III (351 RU)
[10] = molecular target: T1, human BMP-1 (bone morphogenetic …); test: SPR, analyte over immobilized BMP-1 (974 RU)
[11] = molecular target: T2, mini-procollagen III (fused to a …); test: SPR, analyte over immobilized mini-procollagen III (435 RU)
[12] = molecular target: B1; test: SPR, analyte over immobilized PCPE-2 (646 RU)

**Q.** How did the Ki [1] turn out when B1 was run?
**A.** 2.8 nM

**Q.** What about the Kd [2] of the same binder?
**A.** 8.4 nM

**Q.** And the “maximum enhancement factor of CPIII-Long processing by BMP-1 (ratios 0:1 to 6:1)” value [3]?
**A.** 1.3 fold

**Q.** Which results are given for B2?
**A.** Kd [4]: 28 nM; Kd [5]: ~30 nM

**Q.** Does B3 bind [6]?
**A.** binds

**Q.** Does B4 bind [7]?
**A.** binds

**Q.** Does B4 bind [8]?
**A.** no binding (tested: 50 nM)

**Q.** How did the Kd [9] turn out when B5 was run?
**A.** 45 nM

**Q.** Which results are given for B6?
**A.** binding result [10]: no binding (tested: 50 nM); binding result [11]: no binding (tested: 200 nM)

**Q.** Does B7 bind [12]?
**A.** no binding (tested: 50 nM)

— patent EP4484444A1 (Centre National de la Recherche Scientifique, dated 2025)
